Source: US20200155643

Target: T1, Recombinant human protein C inhibitor (PCI, SERPINA5), P05154
T1 chain: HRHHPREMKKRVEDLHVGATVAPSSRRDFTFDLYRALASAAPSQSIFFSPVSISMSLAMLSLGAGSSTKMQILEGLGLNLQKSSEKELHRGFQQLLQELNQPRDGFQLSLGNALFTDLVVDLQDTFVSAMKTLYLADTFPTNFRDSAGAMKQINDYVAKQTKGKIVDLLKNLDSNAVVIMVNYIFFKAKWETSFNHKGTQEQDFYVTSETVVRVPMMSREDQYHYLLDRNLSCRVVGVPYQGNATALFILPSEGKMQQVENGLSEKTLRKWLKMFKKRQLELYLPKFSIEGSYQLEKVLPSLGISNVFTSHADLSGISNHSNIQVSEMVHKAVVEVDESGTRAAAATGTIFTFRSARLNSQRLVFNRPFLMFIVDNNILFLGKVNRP

B1: Recombinant human matriptase (protein)
chain: GSDEKDCDCGLRSFTRQARVVGGTDADEGEWPWQVSLHALGQGHICGASLISPNWLVSAAHCYIDDRGFRYSDPTQWTAFLGLHDQSQRSAPGVQERRLKRIISHPFFNDFTFDYDIALLELEKPAEYSSMVRPICLPDASHVFPAGKAIWVTGWGHTQYGGTGALILQKGEIRVINQTTCENLLPQQITPRMMCVGFLSGGVDSCQGDSGGPLSSVEADGRIFQAGVVSWGDGCAQRNKPGVYTRLPLFRDWIKENTGV
cleavage of PCI (anti-PCI immunoblot): resulted in the appearance of cleaved forms of PCI
